The values that follow come from US20090203048A1 (UNIVERSITY OF MASSACHUSETTS, published 2009).

Assay [1] addresses bombesin receptor of PC3 cells. Put plainly: 125I-ligand binding to PC3 cells, 37C; with 60 µM AA-861.
Assay [2] addresses bombesin receptor of PC3 cells. Nature of the assay: 125I-ligand binding to PC3 cells; with 60 µM phloretin.
The target of assay [3] is bombesin receptor of PC3 cells. Put plainly: Scatchard analysis, PC3 cells, 37C.
The target of assay [4] is bombesin receptor of PC3 cells. Put plainly: 125I-ligand binding to PC3 cells; with 60 µM SKF-96365.
Assay [5] concerns the target bombesin receptor of PC3 cells. Put plainly: 125I-ligand binding to PC3 cells, 37C; with 60 µM Rev-5901.
The target in assay [6] is bombesin receptor of PC3 cells. Put plainly: 125I-ligand binding to PC3 cells, 37C; with 12 µM NDGA.
Assay [7] addresses bombesin receptor of PC3 cells. Nature of the assay: 125I-ligand binding to PC3 cells, 37C; with 60 µM NDGA.
Assay [8] addresses bombesin receptor of PC3 cells. Put plainly: 125I-ligand binding to PC3 cells; with 12 µM phloretin.
The target in assay [9] is bombesin receptor of PC3 cells. Put plainly: 125I-ligand binding to PC3 cells; with 60 µM NIF.
Assay [10] concerns the target bombesin receptor of PC3 cells. Nature of the assay: 125I-ligand binding to PC3 cells, 37C.
For assay [11], the target named is bombesin receptor of PC3 cells. Nature of the assay: 125I-ligand binding to PC3 cells, 37C; with 12 µM MK886.
The target in assay [12] is bombesin receptor of PC3 cells. Put plainly: 125I-ligand binding to PC3 cells, 37C; with 12 µM AA-861.
Assay [13] has as its target bombesin receptor of PC3 cells. Nature of the assay: 125I-ligand binding to PC3 cells; with 60 µM verapamil.
Assay [14] deals with bombesin receptor of PC3 cells. Put plainly: 125I-ligand binding to PC3 cells; with 12 µM SKF-96365.
In assay [15] the target is bombesin receptor of PC3 cells. Nature of the assay: 125I-ligand binding to PC3 cells; with 12 µM verapamil.
For assay [16], the target named is bombesin receptor of PC3 cells. Put plainly: 125I-ligand binding to PC3 cells, 37C; with 12 µM Rev-5901.
Assay [17] has as its target bombesin receptor of PC3 cells. Nature of the assay: 125I-ligand binding to PC3 cells, 37C; with 60 µM MK886.
Assay [18] deals with bombesin receptor of PC3 cells. Put plainly: 125I-ligand binding to PC3 cells; with 12 µM NIF.
In assay [19] the target is bombesin receptor of PC3 cells. Put plainly: displacement of 125I-ligand by unlabeled ligand, PC3 cells, 37C. (In general: Loss of bound radioactivity is the signal in a displacement assay; it reports binding, not function.)
The target of assay [20] is vasopressin (V1a) receptor of PC3 cells (UniProt P37288). Put plainly: 125I-HOLVA binding to PC3 cell membranes; with 60 µM verapamil.
For assay [21] the target is unchanged. Nature of the assay: 125I-ligand binding to PC3 cells, 37C; with 60 µM AA-861.
The target is the same in assay [22]. Nature of the assay: 125I-ligand binding to PC3 cells; with 60 µM phloretin.
Assay [23] shares this target. Nature of the assay: Scatchard analysis, PC3 cells, 37C.
For assay [24] the target is unchanged. Nature of the assay: 125I-HOLVA binding to PC3 cell membranes; with 60 µM NIF.
Assay [25] has the same target. Nature of the assay: 125I-ligand binding to PC3 cells; with 60 µM SKF-96365.
Assay [26] shares this target. Nature of the assay: 125I-ligand binding to PC3 cells, 37C; with 60 µM Rev-5901.
Assay [27] has the same target. Put plainly: 125I-HOLVA binding to PC3 cell membranes; with 60 µM SKF-96365.
The target is the same in assay [28]. Nature of the assay: 125I-ligand binding to PC3 cells, 37C; with 12 µM NDGA.
Assay [29] shares this target. Put plainly: 125I-ligand binding to PC3 cells, 37C; with 60 µM NDGA.
Assay [30] shares this target. Put plainly: 125I-ligand binding to PC3 cells; with 12 µM phloretin.
Assay [31] has the same target. Nature of the assay: 125I-ligand binding to PC3 cells; with 60 µM NIF.
Assay [32] shares this target. Put plainly: 125I-ligand binding to PC3 cells, 37C.
Assay [33] has the same target. Nature of the assay: 125I-ligand binding to PC3 cells, 37C; with 12 µM MK886.
Assay [34] has the same target. Put plainly: 125I-ligand binding to PC3 cells, 37C; with 12 µM AA-861.
Assay [35] shares this target. Nature of the assay: 125I-ligand binding to PC3 cells; with 60 µM verapamil.
Assay [36] has the same target. Nature of the assay: 125I-ligand binding to PC3 cells; with 12 µM SKF-96365.
Assay [37] shares this target. Put plainly: 125I-ligand binding to PC3 cells; with 12 µM verapamil.
The target is the same in assay [38]. Nature of the assay: 125I-ligand binding to PC3 cells, 37C; with 12 µM Rev-5901.
The target is the same in assay [39]. Put plainly: 125I-ligand binding to PC3 cells, 37C; with 60 µM MK886.
Assay [40] shares this target. Nature of the assay: 125I-ligand binding to PC3 cells; with 12 µM NIF.
Assay [41] has the same target. Put plainly: displacement of 125I-ligand by unlabeled ligand, PC3 cells, 37C.
Assay [42] has as its target T1, neurotensin receptor 1 (NTR1) of PC3 cells (UniProt P30989 1-418, limits assumed).
T1 construct: whole, on cells; its antiserum peptide is from human NTR1; Some assays used isolated PC3 cell membranes or detergent or SDS extracts instead of live cells (see the assay field); also called NT receptor
Put plainly: UV crosslinking on PC3 cells, immunoprecipitated NTR1; with verapamil against control.

Assay [43] addresses T1, neurotensin receptor 1 (NTR1) of PC3 …. Put plainly: UV crosslinking on PC3 cells, immunoprecipitated NTR1; with 50 µM NDGA.
Assay [44] shares this target. Put plainly: UV crosslinking on PC3 cells, immunoprecipitated NTR1; with NIF against control.
For assay [45] the target is unchanged. Nature of the assay: UV crosslinking on PC3 cells, immunoprecipitated NTR1; with phloretin against control.
Assay [46] shares this target. Put plainly: UV crosslinking on PC3 cells, immunoprecipitated NTR1; with 50 µM MK886.

T1 sequence (P30989 whole entry): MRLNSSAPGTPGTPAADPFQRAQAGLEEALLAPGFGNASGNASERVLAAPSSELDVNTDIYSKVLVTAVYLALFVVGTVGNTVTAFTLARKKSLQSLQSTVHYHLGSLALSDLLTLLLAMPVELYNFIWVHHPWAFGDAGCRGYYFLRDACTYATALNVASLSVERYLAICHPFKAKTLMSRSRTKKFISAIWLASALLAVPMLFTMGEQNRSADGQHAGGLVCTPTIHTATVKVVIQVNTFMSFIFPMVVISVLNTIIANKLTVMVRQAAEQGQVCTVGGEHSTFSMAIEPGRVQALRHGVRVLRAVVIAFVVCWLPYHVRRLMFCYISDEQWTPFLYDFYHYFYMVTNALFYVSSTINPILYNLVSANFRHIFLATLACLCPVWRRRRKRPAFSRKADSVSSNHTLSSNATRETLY
vasopressin (V1a) receptor of PC3 cells, sequence (P37288 whole entry): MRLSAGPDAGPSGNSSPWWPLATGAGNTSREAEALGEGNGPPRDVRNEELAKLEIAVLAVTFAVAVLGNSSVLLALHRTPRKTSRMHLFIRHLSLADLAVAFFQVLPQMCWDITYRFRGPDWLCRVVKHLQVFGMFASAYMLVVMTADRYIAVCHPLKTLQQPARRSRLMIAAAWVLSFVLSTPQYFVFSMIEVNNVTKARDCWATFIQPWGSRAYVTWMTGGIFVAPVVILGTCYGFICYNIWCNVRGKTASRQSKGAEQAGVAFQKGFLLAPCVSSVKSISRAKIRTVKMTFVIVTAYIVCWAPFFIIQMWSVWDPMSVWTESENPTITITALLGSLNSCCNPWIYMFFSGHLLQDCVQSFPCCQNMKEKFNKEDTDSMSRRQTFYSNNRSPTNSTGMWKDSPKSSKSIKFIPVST
bombesin receptor of PC3 cells, sequence (P30550 whole entry): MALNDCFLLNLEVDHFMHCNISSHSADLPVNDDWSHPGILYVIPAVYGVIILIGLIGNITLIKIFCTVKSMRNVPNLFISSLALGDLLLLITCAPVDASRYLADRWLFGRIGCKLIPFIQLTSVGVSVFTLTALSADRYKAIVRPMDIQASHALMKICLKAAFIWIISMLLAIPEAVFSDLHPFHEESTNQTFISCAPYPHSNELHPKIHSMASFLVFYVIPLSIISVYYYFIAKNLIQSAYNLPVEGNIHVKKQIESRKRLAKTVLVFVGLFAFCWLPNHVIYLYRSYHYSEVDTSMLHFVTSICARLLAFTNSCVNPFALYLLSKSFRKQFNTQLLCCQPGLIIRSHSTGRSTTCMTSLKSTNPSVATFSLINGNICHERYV

(Tyr 4, Nle 14)-bombesin (peptide): the Specific Binding (% control) in assay [1] worked out at 135 % control; in [2], 111 % control; in assay [4] it was 106 % control; in assay [5] it was 119 % control; in assay [6] it was 110 % control; in assay [7], 127 % control. Further, the Specific Binding (% control) in [8] is 104 % control; in [9], 119 % control; in assay [11], 106 % control; in assay [12], 112 % control; in [13], 104 % control; in assay [14], 99 % control. The Specific Binding (% control) in assay [15] came out at 104 % control; in assay [16], 107 % control; in assay [17], 125 % control; in assay [18] it was 108 % control. In addition, in [3], the Bmax is 1020 fmol/mg. Moreover, in [10], the Specific Binding (% of total) was 95 % of total. Further, the Ki in [19] stood at 0.6 nM.
Take “des-Gly-[Phaal, D-Tyr(Et)2, Lys6, Arg8]-vasopressin (HOLVA) (peptide)”: the Binding (% control) worked out at 91 % control in assay [20], 90 % control in assay [24] and 110 % control in assay [27]. Besides, the Specific Binding (% control) amounted to 57 % control in assay [21]; 73 % control in assay [22]; 50 % control in [25]; 42 % control in [26]; 84 % control in assay [28]; 50 % control in [29]. Also, the Specific Binding (% control) was 92 % control in [30]; 59 % control in [31]; 93 % control in assay [33]; 87 % control in assay [34]; 58 % control in [35]; 80 % control in assay [36]. The Specific Binding (% control) came to 85 % control in assay [37], 68 % control in [38], 67 % control in [39] and 95 % control in [40]. The molecule further showed a Bmax in [23] of 156 fmol/mg. In addition, the Specific Binding (% of total) in assay [32] is 77 % of total. The molecule further showed a Ki in assay [41] of 0.5 nM.

B1: ^125I-[4-azido-Phe^6]-NT (peptide)
peptide: ELYENFPRRPYIL
modifications: 4-azido-Phe at position 6; pGlu at position 1; 125I iodinated
notes: the residue at 6 is 4-azido-phenylalanine
In the case of B1, the “fold increase in radioactivity associated with NTR1” value was found to be 1.5 fold in assay [42]; 2.6 fold in assay [43]; 2.8 fold in assay [44]; 1.8 fold in assay [45]; 2.7 fold in [46].

By Ki is commonly meant a measure of affinity in units of concentration, obtained from inhibition or displacement.
